{"source": "the nanobody polyreactivity screen of Harvey et al. (2022)", "data": [{"test": "yeast display, Sf9 membrane polyspecificity reagent, FACS + sequencing; frameworks hold sequencing errors", "method_in_brief": "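In a synthetic yeast display library (Saccharomyces cerevisiae BJ5465), nanobody expression was induced with galactose for 36–48 hours. FACS gates were set low and high (top ~1%) using anti-HA fluorescence for expression and streptavidin fluorescence for binding of the Sf9 membrane reagent. Each polyreactivity label is drawn from the gate of origin.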", "values": [{"sequence": "QVHLVESGGGLVQAGGSLRLSCAASGRISFNAMGWYRQAHAKERELVAAISRRGGSTYYADSVKGRFTISRDNAKNTVSLQMNSLKPEDTAVYYCAPDIIRPVTVDYWGQGTQVTVSS", "polyreactivity (PSR sort gate)": "high polyreactivity"}, {"sequence": "QVHLVESGGGLVQAGGSLRLSCAASGRIYRVNGMGWYRQAPGTERELVAAIRRSGGSTYYADSVKGRFTISRDIAKNTVYLQMNSLKPEDTAVYYCAARVRQSSYTRYDSWGQGTQVTVSS", "polyreactivity (PSR sort gate)": "high polyreactivity"}, {"sequence": "QVHLVESGGGLVQAGGSLRLSCAASGRPFYIYAMGWYRPAPGKERELVAAITWSGGTTYYADSVKGRFTISRDTANNTVYLQMNSQKPQDTAVYYCNASFRRGFDYWGQGTQVTVSS", "polyreactivity (PSR sort gate)": "low polyreactivity"}, {"sequence": "QVHLVESGGGLVQAGGSLRLSCAASGRTFFRYAMGWYTQAPGKERELVAAITRSGGSTYYADSVKGRFTISRDNAKNTVYLEMNSLKPEDTAVYYCAAPREAYSRGYDSWGQGTQVTVSS", "polyreactivity (PSR sort gate)": "high polyreactivity"}, {"sequence": "QVHLVESGGGLVQAGGSLRLSCAASGRTFNRTAMGSYRQAPGKERELVAAMSWRGDSTSYADSVKGRFTISRDNAKNTVYLQMNSLKPADTAVYYCATAHDYAFYRYWYVPSEYYYWGQGTQVTVSW", "polyreactivity (PSR sort gate)": "low polyreactivity"}, {"sequence": "QVHLVESGGGLVQAGGSLRLSCAASGRTFPGYAMGWYRQAPGKERELVATITGNAGSTYYADSVKGRFTISRDNAKNTVYLQMNSLKPEDTAVYYCAAGRRRPYVRAYRGTDYWGQGTQVTVSS", "polyreactivity (PSR sort gate)": "low polyreactivity"}, {"sequence": "QVHLVESGGGLVQAGGSLRLSCAASGRTFSWNALGWYRQAPGKQRELVAVISRGDSTNYADSVKGRFTISRDNEKNTVYLQMNSLKPVDNAVYYCAADGYPPGYGYWGQGTQVTVSS", "polyreactivity (PSR sort gate)": "low polyreactivity"}, {"sequence": "QVHLVESGGGLVQAGGSLRLSCAASGRTFVFNAMGWYRQAPGKEREFVAAITWGGGSTYYADSVKGRFTISRDNAKNTVYLQMNSLKPEDTADYYCARPTTYGYYYWGQGTQVTVSS", "polyreactivity (PSR sort gate)": "high polyreactivity"}, {"sequence": "QVHLVESGGGLVQAGGSLRLSCAASGRTIGVNAMGWYRQPHGTERELVAAITKDSGATNYADSVKGLFTISRDNAKITVYFQMNSLKADDTAVYYCAARVWVRGYYWGQGTQVTVSS", "polyreactivity (PSR sort gate)": "low polyreactivity"}, {"sequence": "QVHLVESGGGLVQAGGSLRLSCAASGRTLAPNAMGWYRQAPGKERELVATITRGGTTNYADSVKGRFTISRDNAKNTVYLQMNSLKPEDTAVYYCAAGYPSWYYGYPYDSWGQGTQVTVSS", "polyreactivity (PSR sort gate)": "low polyreactivity"}, {"sequence": "QVHLVESGGGLVQAGGSLRLSCAASGRTVEGNAMGWYIQAPGKERELVAAITSGGRTNYADSVKGRFTISRDNAKNTVYLQMNSLKPVDTAVYYCAVETRDRSTDFPGQAYDYWGQGTQLTVSS", "polyreactivity (PSR sort gate)": "low polyreactivity"}, {"sequence": "QVHLVESGGGLVQAGGSLRLSCAASGSIFFGNAMGWYRQAPGKERQLVAAISTTGGSTYYADSVKGRFTISRDNAKNTVYLQMNSLKPEDTAVFFCNSDRATWWEQWWYDYWGQGTQVTVSS", "polyreactivity (PSR sort gate)": "low polyreactivity"}, {"sequence": "QVHLVESGGGLVQAGGSLRLSCAASGSIFGPYMGWYRQAPGKERELVASVVSTYYADSVKGRFTISRDNAKNTVYLQMNSLKPEYTAVYYCNTQDTKNKSSVFVPSDYWGQGTQVTVSS", "polyreactivity (PSR sort gate)": "low polyreactivity"}, {"sequence": "QVHLVESGGGLVQAGGSLRLSCAASGSIFNVNAMGWYRQAPGKERELVAAISSGGDTYYADSVKGRFTISRDNAKNTVYLQMNCLKPEDTAVYYCAKQSYTLYTLLYDYWGQGTQVTVSS", "polyreactivity (PSR sort gate)": "low polyreactivity"}, {"sequence": "QVHLVESGGGLVQAGGSLRLSCAASGSIFSWNAMGWYRQAPGKERELVAAISKRGTSTYYADSVKGRFTISRDNAKNTVYLQMNSLKPEDTAVYYCAARAQSYPYLSFDYWGQGTQVTVSS", "polyreactivity (PSR sort gate)": "high polyreactivity"}, {"sequence": "QVHLVESGGGLVQAGGSLRLSCAASGSIFVYNSMGWYRQAPGKEMELVAGITFIGGSTYYADSVKGRFTISRDNAKNTVYLQKNSLKPEDTAVYYCNADVAPGIFYGYDSWGQGTQVTVSS", "polyreactivity (PSR sort gate)": "low polyreactivity"}, {"sequence": "QVHLVESGGGLVQAGGSLRLSCAASGSIFWWYAMGWYRQAPGKERELVAAIRWSGTTAFYADSVKGRFTISRDYAKNTVYLQMNSLKPEDTAVYYCNAEGGIWGGTTGYDYWGQGTQVTVSS", "polyreactivity (PSR sort gate)": "low polyreactivity"}, {"sequence": "QVHLVESGGGLVQAGGSLRLSCAASGSIFYTNAMGWYSQAPGKERELVAAISYSGGRTYYADSVKGRFTISRDNAKNTVYIQMNSLKPEDTAVFYCNTVLRGGSTEAFDYWGQGTKVTVSS", "polyreactivity (PSR sort gate)": "high polyreactivity"}, {"sequence": "QVHLVESGGGLVQAGGSLRLSCAASGSIFYYNAMGSYRHAPGKERELVAAINWSGDRTYYADSVKGRFTISRDNAKNTVYLQMNSLKPEYTAVYYCAATAWPGRYWRQEVDYWGQGTQVTVSS", "polyreactivity (PSR sort gate)": "high polyreactivity"}, {"sequence": "QVHLVESGGGLVQAGGSLRLSCAASGSILGSNAMGWYRQAPGKERELVAAISSGGSTDYADSVKVRFTISRDNAKNTVYLQMYCLKPEDTAVYYCAAGFIYHYGLYKIYDYYYWGQGTQVTVSS", "polyreactivity (PSR sort gate)": "low polyreactivity"}, {"sequence": "QVHLVESGGGLVQAGGSLRLSCAASGSILSDNTLGWYRQAPGKERELVAAISRSGGTTYYADSVKGRFTISRDNAKNTVYLQMNSLKPEDTAVYYCAARYYYRYNYWGQGTQVTVSS", "polyreactivity (PSR sort gate)": "high polyreactivity"}, {"sequence": "QVHLVESGGGLVQAGGSLRLSCAASGSTFAANAMGWYRQAPGKERELVAAITSSGGSTYYADSVKGRFTISRDNAKNTVYLQMNSLKPEDTAVYYCKKDIERYFRIYDSWGQGTQVTVSS", "polyreactivity (PSR sort gate)": "low polyreactivity"}, {"sequence": "QVHLVESGGGLVQAGGSLRLSCAASGSTFDPNAMGWYTQAPGKERELVAAISYTGGRTYYADSVKGRFTISRDKAKNTVYLQMNSLKPEATAVYYCAVLVVGSPTQDEPYVSGVEHDYWGQGTQVTVSS", "polyreactivity (PSR sort gate)": "low polyreactivity"}, {"sequence": "QVHLVESGGGLVQAGGSLRLSCAASGSTFFIYTMGWYRQAPGKEREFVAAISWTGGRTYYADSVKGRFTISRDNAKNTVFLQMNSLKPEDTAVYYCAARYKYYSYDYWGQGTQVTVSS", "polyreactivity (PSR sort gate)": "high polyreactivity"}, {"sequence": "QVHLVESGGGLVQAGGSLRLSCAASGSTFFLYAMGWYRQAPGKERELVAAISSGGSTYYADSVKGRFTISRDNAKNTVYLQMTRLKPEDTAVYYCARDRIDTTDRTWRGDYWGQGTQATVSS", "polyreactivity (PSR sort gate)": "low polyreactivity"}, {"sequence": "QVHLVESGGGLVQAGGSLRLSCAASGSTFGLKAMGWYRQAPGKEREFVASINFNDGSTYYADSVKGRFTISRDNAKNTVYLQMNSLKPEDPAVYYCAVELWWKWPFYYWGQGTQVTVSS", "polyreactivity (PSR sort gate)": "high polyreactivity"}, {"sequence": "QVHLVESGGGLVQAGGSLRLSCAASGSTFLPNAMGWYRQAPGKERELVAAITNGGGTNYADSVKGRFTISRDNAKNTVYLQMYSLKPEDTAVYYCNADSTYFGGHDYWGPGTQVTVSS", "polyreactivity (PSR sort gate)": "low polyreactivity"}, {"sequence": "QVHLVESGGGLVQAGGSLRLSCAASGSTFNYNAMGWYRQAPGKERELVAAISGSGGSTYYADSVKGRFTISRDNAKNSVYLQMNSLKPEDTAVDYCAGLYGPGRAFDYWGQGTQVTVSS", "polyreactivity (PSR sort gate)": "low polyreactivity"}, {"sequence": "QVHLVESGGGLVQAGGSLRLSCAASGSTFSIYAMGWYRQAPGKERELVAAINSGGDTNYADSVKGRFTISRDNAKNTVYLQMNSLKPEDTAVYYCAKQVYTSRRSRGRYGFGYWGQGTQVTVSS", "polyreactivity (PSR sort gate)": "high polyreactivity"}, {"sequence": "QVHLVESGGGLVQAGGSLRLSCAASGSTFTLNTMGWYRQAPGKERELVAGIRSGGSTYYADSVKGRFTISRDNAKNTVYLQMNSLKPEDTAVYYCAADRRWFAYWFDYWGQGTQVTVSS", "polyreactivity (PSR sort gate)": "low polyreactivity"}, {"sequence": "QVHLVESGGGLVQAGGSLRLSCAASGSTFTPYAMGWYRQAPGKERELVAAITWRTGSTRYADSVKGRFTISRDNAKNTVYLQMNSLKPEDTAVYYCAAKVPRFGAPGVNYWGQGTQVTVSS", "polyreactivity (PSR sort gate)": "high polyreactivity"}, {"sequence": "QVHLVESGGGLVQAGGSLRLSCAASGSTFTYNTMGWYRQAPGKERELVAAITWSGGRTYYADSVKGRFTISRDNAKNTVYLQMNSLKPEDTAVYYCNADSSGVTSAYDYWGQGTQVTVSS", "polyreactivity (PSR sort gate)": "high polyreactivity"}, {"sequence": "QVHLVESGGGLVQAGGSLRLSCAASGSTFTYYAMGWYRQAPGKERELVAAITGRGGRTYYADSVKGRFTISRDNAKNTVYLQMNSLKPEDTAVYYCARYPSSDTYWTKYDYWGQGTQVTVSS", "polyreactivity (PSR sort gate)": "high polyreactivity"}, {"sequence": "QVHLVESGGGLVQAGGSLRLSCAASGSTFTYYDMVWYRKAPGNETELLATIDSTTRTYYADSVKGRFTISRDNAKNTVSLQMNSLKPEETAVYYCAADLTWAYFYYLFYRYDYWGQGTQVTVSS", "polyreactivity (PSR sort gate)": "low polyreactivity"}, {"sequence": "QVHLVESGGGLVQAGGSLRLSCAASGSTFYRYAMGWYRQAPGKEREFVAAISTRGGSTHYADSVKGRFTISRDNAKNTVYLQMNSLKPEDTAVSYCNARGYYSVPSNTGIRYYRFDYWGQGTQVTVSS", "polyreactivity (PSR sort gate)": "low polyreactivity"}, {"sequence": "QVHLVESGGGLVQAGGSLRLSCAASGSTLYDNAMGWYRQAPGKERELVAAITRRGAGTYYADSVKGRFTISRDNAKNTVYLQMNSLKPEDTAVYYCNAGRPYFVRYYYWGHGTQVTVSS", "polyreactivity (PSR sort gate)": "high polyreactivity"}, {"sequence": "QVHLVESGGGLVQAGGSLRLSCAASGYTFLANAMGWYSQAPGKERELVAAISSGGTTYYADSVKGRFTISRDNAKNTVYLQMNSLKPEDTAVYYCATVFRDYDFNHWGQGTQVTVSS", "polyreactivity (PSR sort gate)": "low polyreactivity"}, {"sequence": "QVHLVESGGGLVQAGGSLRLSCAASRSTFVNYAMGWYRQAPGKERELVAGISRSGGSTYYADSVKGRFTISRDNAKNTVYLQMNSLKPDDTAVYYCAKRYGRLTRYDYWGQGTQVNVSS", "polyreactivity (PSR sort gate)": "high polyreactivity"}, {"sequence": "QVHLVESGGGLVQAGGSLRLSCAASVFTFNSNAMGWYRQAPGKERELVAAISWSGGSTYYADSVKGRFTISRDNAKNTVYLLMNSLKPEDTAVYYCAKGYRRVYGPFYYWGQGTQLTVSS", "polyreactivity (PSR sort gate)": "low polyreactivity"}, {"sequence": "QVHLVESGGGLVQAGGSLRLSCAATGSTFSNYAMGWNRQAPGKERELVASISNGGSTNYADSVKGRFTISRDNANNTVYLQMNSLKPVDTEVYFCIAESKAKYDYWGQGTQVSVSS", "polyreactivity (PSR sort gate)": "low polyreactivity"}, {"sequence": "QVHLVESGGGLVQAGGSLRLSCAATGSTFTINAMGWYRQAPGKERELVAAINDGDDTYYADSVKGRFTISRDNAKNTVYLQMNSLKPEDTAVYFCAADIIYGYEVYTYTSDYWGQGTQVTVSS", "polyreactivity (PSR sort gate)": "low polyreactivity"}, {"sequence": "QVHLVESGGGLVQAGGSLRLSCADSGTTFHKYAMGWYRQAPGTERELVARISVGGDSTYYADSVKGRFTISRDNAKNTDYLQIISLKPEDTAVYYCAKVRYLVFLYPPRYYYWGQGTEVTVSS", "polyreactivity (PSR sort gate)": "low polyreactivity"}, {"sequence": "QVHLVESGGGLVQAGGSLRLSCASSGSIFGPYVMGWYRQAPRKERELVAAITWNGGSTNYADSLKGRFTISRDNAKNTVYLQMNSLKPEETAVYYCNTVSWPLSSKYYYWGQGTQVSVSS", "polyreactivity (PSR sort gate)": "high polyreactivity"}]}]}
